Experiment [1] addresses T1, mouse beta-NGF (R&D Systems) (mouse, UniProt P01139 122-241). The experiment in a line: cell-based or functional assay.
For experiment [2], the target named is T2, human beta-NGF (R&D Systems) (human, UniProt P01138 122-241).
T2 construct: It was unlabelled in the ITC, DLS and cell assays; also called ヒトβNGF; ヒトNGF
The experiment in a line: papain Fab tested by Examples 3, 6 and 7.

In experiment [3] the target is T2, human beta-NGF (R&D Systems). The experiment in a line: cell-based or functional assay.
Experiment [4] has the same target. The experiment in a line: screening by Examples 3 to 8 (NGF-trkA binding inhibition ELISA, cell assays). On the technique in general: In an ELISA, binding on a coated surface is turned into a signal by an enzyme label.
The target in experiment [5] is T1, mouse beta-NGF (R&D Systems). The experiment is described as follows: competition ELISA with biotin-mouse βNGF on immobilised trkA (Example 4).
The target of experiment [6] is T2, human beta-NGF (R&D Systems). The experiment in a line: isothermal titration calorimetry in PBS: 44 μM human βNGF titrated into 1.5 μM Tanezumab, single site binding model. Background: In ITC the heat of successive injections is recorded.
Experiment [7] shares this target. The experiment in a line: competition ELISA: inhibition of biotin-human βNGF binding to immobilised human trkA (Example 3).

Where a chain is given by its changes, count along the chain named. In names and notes the source's numbering stands.

Data on six molecules can be found in patent publication JP2014150761A (dated 2014).

By Kd is commonly meant the concentration at which binding is half-saturated. High values mean lower affinity, low ones higher affinity. What is called IC50 is the concentration that gives 50% inhibition. Low values mean greater potency in that assay, high ones weaker potency in that assay.

B1: PEGylated 1-15(N52D)-Fab' (Fab, V domains shown)
VH: QVQLQQWGAGLLKPSETLSLTCAVYGGSFSGYYWSWVRQPPGKGLEWIGEIDHSGSTNNNPSLKSRVTISVGTSKNQFSLKLSSVTAADTAVYYCSRDGGPESGMGAFDIWGQGTMVTVSS
VL: not shown
modifications: 40 kDa PEG (SUNBRIGHT GL2-400MA, maleimide) on the C-terminal Cys (EU C226; Cys 230 of SEQ ID NO 10)
On to B1, for which, in experiment [1], the “IC50, neutralizing activity by the method of Example 6 (Ca2+ rise, HEK293 cells expressing human trkA)” value worked out at 0.069 µg/mL and the “fold stronger neutralizing activity than Tanezumab (method of Example 6)” value is around 3.3 fold.

B2: Fab fragment of the 1-15 antibody (papain digest) (Fab, V domains shown)
VH: B1 VH with D52N
VL: not shown
notes: also called 1-15 Fab; 1価の抗体フラグメント
For the molecule B2, the binding result in experiment [2] is “binds”.

B3: 1-15(N52D-A)-Fab'-5kPEG (Fab, V domains shown)
VH: B1 VH
VL: not shown
modifications: 5 kDa PEG (SUNBRIGHT GL2-50MA) bound by the procedure of Example 13 (hinge Cys)
Take B3: in experiment [3], the “IC50, neutralizing activity by the method of Example 6 (final NGF concentration 50 ng/ml)” value is 0.03 µg/mL.

B4: 1-15 antibody (chimeric antibody) (antibody, V domains shown)
VH: B1 VH with D52N
VL: not shown
notes: also called 1−15と命名した抗体(キメラ抗体)
For B4, the binding result in experiment [4] and in experiment [5] was “binds” in each case.

B5: 1-15(N52D-A)-Fab'-10kPEG (Fab, V domains shown)
VH: B1 VH
VL: not shown
modifications: 10 kDa PEG (SUNBRIGHT GL2-100MA) bound by the procedure of Example 13 (hinge Cys)
With B5, in experiment [3], the “IC50, neutralizing activity by the method of Example 6 (final NGF concentration 50 ng/ml)” value stood at 0.028 µg/mL.

B6: Tanezumab (antibody, V domains shown)
VH: QVQLQESGPGLVKPSETLSLTCTVSGFSLIGYDLNWIRQPPGKGLEWIGIIWGDGTTDYNSAVKSRVTISKDTSKNQFSLKLSSVTAADTAVYYCARGGYWYATSYYFDYWGQGTLVTVSS
VL: DIQMTQSPSSLSASVGDRVTITCRASQSISNNLNWYQQKPGKAPKLLIYYTSRFHSGVPSRFSGSGSGTDFTFTISSLQPEDIATYYCQQEHTLPYTFGQGTKLEIKR
B6 had a Kd in experiment [6] of 20.4 nM. Further, the IC50 in experiment [7] was found to be 0.41 µg/mL. The results for the “IC50, neutralizing activity by the method of Example 6 (Ca2+ rise, HEK293 cells expressing human trkA)” value in experiment [1] and in experiment [3] were 0.23 µg/mL and 0.17 µg/mL, respectively.
